Laboratory results published in PMC9688528.

Legend:
Assay in all cases: target-induced aptamer displacement, RDV release by UV-vis at 247 nm
immunoglobulin G (IgG) = conditions: 2 uM IgG; 3'-SH on aptamer; 5'-COOH on complementary strand; Release assay buffer and temperature not given; Au-DNA stored in PBS (137 mM NaCl, 2.7 mM KCl, 10 mM Na2HPO4, 1.75 mM KH2PO4, 50 mM MgCl2, pH 7.4)
hemoglobin (HGB) = conditions: 2 uM HGB; 3'-SH on aptamer; 5'-COOH on complementary strand; Release assay buffer and temperature not given; Au-DNA stored in PBS (137 mM NaCl, 2.7 mM KCl, 10 mM Na2HPO4, 1.75 mM KH2PO4, 50 mM MgCl2, pH 7.4)
fibrinogen (FIB) = conditions: 2 uM FIB; 3'-SH on aptamer; 5'-COOH on complementary strand; Release assay buffer and temperature not given; Au-DNA stored in PBS (137 mM NaCl, 2.7 mM KCl, 10 mM Na2HPO4, 1.75 mM KH2PO4, 50 mM MgCl2, pH 7.4)
[1] = test system: alkaline phosphatase (AKP); conditions: 20 U/mL AKP; 3'-SH on aptamer; 5'-COOH on complementary strand; Release assay buffer and temperature not given; Au-DNA stored in PBS (137 mM NaCl, 2.7 mM KCl, 10 mM Na2HPO4, 1.75 mM KH2PO4, 50 mM MgCl2, pH 7.4)
cytochrome c = conditions: 2 uM cytochrome c; 3'-SH on aptamer; 5'-COOH on complementary strand; Release assay buffer and temperature not given; Au-DNA stored in PBS (137 mM NaCl, 2.7 mM KCl, 10 mM Na2HPO4, 1.75 mM KH2PO4, 50 mM MgCl2, pH 7.4)

“GCTGGATGTCGCTTACGACAATATTCCTTAGGGGCACCGCTACATTGACACATCCAGC / TTGTACTGGCTCATAGCTGGATGTGTCAATGTAGCGGTGCCCCTAAGGAATATTGTCGTAAGCG” gave a binding signal (% of N protein signal) (immunoglobulin G (IgG)) of 7.05, a binding signal (% of N protein signal) (hemoglobin (HGB)) of 6.22 and a binding signal (% of N protein signal) (fibrinogen (FIB)) of 4.56. For the same sequence, the binding signal (% of N protein signal) [1] was 11.6 and the binding signal (% of N protein signal) (cytochrome c) was 9.13.
